Laboratory results as given in paper PMC314469, “Protein Interaction Networks by Proteome Peptide Scanning” (PLoS Biology, 2004).

T1: Yfr024 SH3 (LSB3_YEAST), P43603
T1 chain: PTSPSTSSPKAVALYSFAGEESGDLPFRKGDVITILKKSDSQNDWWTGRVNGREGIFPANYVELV

T2: Myo5 SH3 (MYO5_YEAST), Q04439
T2 chain: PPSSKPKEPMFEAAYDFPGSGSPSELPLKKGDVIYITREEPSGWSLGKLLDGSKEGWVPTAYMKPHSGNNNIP

T3: Boi2 SH3 (BOI2_YEAST), P39969
T3 chain: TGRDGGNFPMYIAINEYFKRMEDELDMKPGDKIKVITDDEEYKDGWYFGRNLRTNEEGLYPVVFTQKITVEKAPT

T4: Rvs167 SH3 (RV167_YEAST), P39743
T4 chain: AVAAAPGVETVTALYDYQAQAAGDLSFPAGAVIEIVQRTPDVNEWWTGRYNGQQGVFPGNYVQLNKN

T5: Boi1 SH3 (BOI1_YEAST), P38041
T5 chain: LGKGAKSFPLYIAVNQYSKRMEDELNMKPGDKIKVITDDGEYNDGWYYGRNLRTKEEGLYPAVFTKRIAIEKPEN

T6: Yhr016c SH3 (YSC84_YEAST), P32793
T6 chain: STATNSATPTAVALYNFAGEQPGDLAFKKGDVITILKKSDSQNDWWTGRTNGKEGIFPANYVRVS


Experiments:
Experiment in all cases: SPOT array
[1] = target: Sho1 SH3 (SHO1_YEAST), P40073
Chain of Sho1 SH3 (SHO1_YEAST), P40073 (P40073 295-366): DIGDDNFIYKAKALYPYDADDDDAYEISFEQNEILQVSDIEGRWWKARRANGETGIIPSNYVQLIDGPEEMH

[2] = target: T1, Yfr024 SH3 (LSB3_YEAST), P43603
[3] = target: T2, Myo5 SH3 (MYO5_YEAST), Q04439
[4] = target: T3, Boi2 SH3 (BOI2_YEAST), P39969
[5] = target: T4, Rvs167 SH3 (RV167_YEAST), P39743
[6] = target: T5, Boi1 SH3 (BOI1_YEAST), P38041
[7] = target: T6, Yhr016c SH3 (YSC84_YEAST), P32793

| normalised SPOT signal, Boehringer light units (BLU); mean over the file's lines of this peptide [1] | normalised SPOT signal, Boehringer light units (BLU); mean over the file's lines of this peptide [2] | normalised SPOT signal, Boehringer light units (BLU); mean over the file's lines of this peptide [3] | normalised SPOT signal, Boehringer light units (BLU); mean over the file's lines of this peptide [4] | normalised SPOT signal, Boehringer light units (BLU); mean over the file's lines of this peptide [5] | normalised SPOT signal, Boehringer light units (BLU); mean over the file's lines of this peptide [6] | normalised SPOT signal, Boehringer light units (BLU); mean over the file's lines of this peptide [7] | Binder |
| --- | --- | --- | --- | --- | --- | --- | --- |
| 106 | 58.8 | 160 | 34.2 | 82.4 | 203 | 57.1 | NSFSKNDPNFPILK [YFL036W 156-169] |
| 25.7 | 22.7 | 112 | 0 | 43.4 | 53.9 | 16.6 | NSGEKIYPQEPPIS [YJL020C 582-595] |
| 21.7 | 58 | 205 | 0 | 109 | 545 | 77.6 | NRANKYDPKGPIYN [YOL049W 169-182] |
| 1820 | 1280 | 235 | 219 | 524 | 1170 | 1260 | NSFRKILPQEPEIW [YBR055C 389-402] |
| 1460 | 1510 | 423 | 16.9 | 155 | 178 | 113 | NSNVRIPPTVPSKI [YGR198W 3-16] |
| 183 | 1250 | 491 | 77.3 | 307 | 2120 | 521 | NRKQRSIPLSPIVP [YEL009C 209-222] |
| 147 | 821 | 956 | 102 | 722 | 481 | 1830 | NSTVRRKPHSPNKK [YDR223W 8-21] |
